Five molecules from paper PMC4417169, “Significance of ligand interactions involving Hop2-Mnd1 and the RAD51 and DMC1 recombinases in homologous DNA repair and XX ovarian dysgenesis” (Nucleic Acids Research, 2015) can be followed below.

Numbering of substitutions follows the chain as printed.

The labels stand for the following.
T1: Hop2 (G203N)-Mnd1, MBP-tagged (mouse, UniProt O35047 1-217; Q8K396 1-205, G203N)
T1 construct: Hop2, mouse; Mnd1, mouse; also called the G203N mutant; source: E. coli, purified; not shown: MBP, N-terminal, kept
T1 sequence (looked up) 1: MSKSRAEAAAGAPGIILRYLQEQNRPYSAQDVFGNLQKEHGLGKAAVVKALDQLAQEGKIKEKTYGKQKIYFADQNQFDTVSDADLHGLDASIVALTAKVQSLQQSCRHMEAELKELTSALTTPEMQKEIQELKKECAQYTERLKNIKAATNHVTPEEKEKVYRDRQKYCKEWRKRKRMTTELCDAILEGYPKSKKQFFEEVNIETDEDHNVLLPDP
T1 sequence (looked up) 2: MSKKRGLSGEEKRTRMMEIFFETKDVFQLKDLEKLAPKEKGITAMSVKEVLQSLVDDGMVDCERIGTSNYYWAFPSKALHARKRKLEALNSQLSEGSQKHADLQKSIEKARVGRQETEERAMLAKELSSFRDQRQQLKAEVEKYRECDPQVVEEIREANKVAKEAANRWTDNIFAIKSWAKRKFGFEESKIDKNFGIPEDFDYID

T2: Hop2 (R176A)-Mnd1 (mouse, UniProt O35047 1-217; Q8K396 1-205, R176A)
T2 construct: Hop2, mouse; Mnd1, mouse; source: E. coli, purified
T2 sequence (looked up) 1: T1 sequence (looked up) 1 with R176A, N203G
T2 sequence (looked up) 2: T1 sequence (looked up) 2

T3: Hop2-Mnd1 (R64A/Y70A/Y71A) (mouse, UniProt O35047 1-217; Q8K396 1-205, R64A | Y70A | Y71A)
T3 construct: Hop2, mouse; Mnd1, mouse; also called Hop2-Mnd1-RYY; source: E. coli, purified
T3 sequence (looked up) 1: T1 sequence (looked up) 1 with N203G
T3 sequence (looked up) 2: T1 sequence (looked up) 2 with R64A, Y70A, Y71A

T4: Hop2 (K63A/Y65A/K67A)-Mnd1 (mouse, UniProt O35047 1-217; Q8K396 1-205, K63A | Y65A | K67A)
T4 construct: Hop2, mouse; Mnd1, mouse; also called Hop2-KYK-Mnd1; source: E. coli, purified
T4 sequence (looked up) 1: T1 sequence (looked up) 1 with K63A, Y65A, K67A, N203G
T4 sequence (looked up) 2: T1 sequence (looked up) 2

T5: Hop2-Mnd1 (KYK+RYY) (mouse, UniProt O35047 1-217; Q8K396 1-205, K63A | Y65A | K67A | R64A | Y70A | Y71A)
T5 construct: Hop2, mouse; Mnd1, mouse; also called Hop2-KYK-Mnd1-RYY; Hop2-KYK/Mnd1-RYY; source: E. coli, purified
T5 sequence (looked up) 1: T1 sequence (looked up) 1 with K63A, Y65A, K67A, N203G
T5 sequence (looked up) 2: T1 sequence (looked up) 2 with R64A, Y70A, Y71A

B1: (His)6-tagged Mnd1 (natural protein, mouse, UniProt Q8K396 1-205, looked up)
chain: T1 sequence (looked up) 2
notes: Mnd1, mouse, without Hop2; also called purified Mnd1 alone; source: purified
B2: Hop2^126-217-Mnd1 (complex, mouse)
chain 1: MQKEIQELKKECAQYTERLKNIKAATNHVTPEEKEKVYRDRQKYCKEWRKRKRMTTELCDAILEGYPKSKKQFFEEVGIETDEDHNVLLPDP
chain 2: T1 sequence (looked up) 2
notes: Hop2, mouse, residues 126-217; Mnd1, mouse; source: E. coli, purified
B3: human DMC1 (natural protein, UniProt Q14565 1-340, looked up)
chain: MKEDQVVAEEPGFQDEEESLFQDIDLLQKHGINVADIKKLKSVGICTIKGIQMTTRRALCNVKGLSEAKVDKIKEAANKLIEPGFLTAFEYSEKRKMVFHITTGSQEFDKLLGGGIESMAITEAFGEFRTGKTQLSHTLCVTAQLPGAGGYPGGKIIFIDTENTFRPDRLRDIADRFNVDHDAVLDNVLYARAYTSEHQMELLDYVAAKFHEEAGIFKLLIIDSIMALFRVDFSGRGELAERQQKLAQMLSRLQKISEEYNVAVFVTNQMTADPGATMTFQADPKKPIGGHILAHASTTRISLRKGRGELRIAKIYDSPEMPENEATFAITAGGIGDAKE
notes: DMC1, human; source: insect cells infected with a recombinant DMC1 baculovirus, purified
B4: human RAD51 (natural protein, UniProt Q06609 1-339, looked up)
chain: MAMQMQLEANADTSVEEESFGPQPISRLEQCGINANDVKKLEEAGFHTVEAVAYAPKKELINIKGISEAKADKILAEAAKLVPMGFTTATEFHQRRSEIIQITTGSKELDKLLQGGIETGSITEMFGEFRTGKTQICHTLAVTCQLPIDRGGGEGKAMYIDTEGTFRPERLLAVAERYGLSGSDVLDNVAYARAFNTDHQTQLLYQASAMMVESRYALLIVDSATALYRTDYSGRGELSARQMHLARFLRMLLRLADEFGVAVVITNQVVAQVDGAAMFAADPKKPIGGNIIAHASTTRLYLRKGRGETRICKIYDSPCLPEAEAMFAINADGVGDAKD
notes: RAD51, human; source: E. coli, purified
B5: Hop2-Mnd1^100-205 (complex, mouse)
chain 1: T1 sequence (looked up) 1 with N203G
chain 2: HADLQKSIEKARVGRQETEERAMLAKELSSFRDQRQQLKAEVEKYRECDPQVVEEIREANKVAKEAANRWTDNIFAIKSWAKRKFGFEESKIDKNFGIPEDFDYID
notes: Hop2, mouse; Mnd1, mouse, residues 100-205; source: E. coli, purified

Common to all, as to conditions: both partners purified
Experiment [1] addresses B4. The experiment can be described thus: pull-down; Ni2+-NTA resin captures (His)6-Hop2-Mnd1 or (His)6-Mnd1 (5 uM) incubated with RAD51 (8 uM); buffer A (25 mM Tris-HCl pH 7.5, 10% glycerol, 0.5 mM EDTA, 0.01% Igepal, 10 mM imidazole), 50-250 mM KCl, with or without 2 mM MgCl2 and 2 mM ATP (or other nucleotides); 4 C; SDS-PAGE, Coomassie.
In experiment [2] the target is B4. The experiment can be described thus: pull-down; affinity pulldown of RAD51 with truncation mutants of Hop2-Mnd1 (Supplementary Figure S3b, c); resin and tag not told.
For experiment [3], the target named is T1, Hop2 (G203N)-Mnd1, MBP-tagged. As to the kind of experiment: pull-down; amylose resin captures MBP-tagged Hop2-Mnd1 or mutant incubated with RAD51 or DMC1; buffer A without imidazole; 4 C; SDS-PAGE, Coomassie.
The target of the next experiment is T2, Hop2 (R176A)-Mnd1. The experiment can be described thus: pull-down; affinity pulldown of RAD51 with the DNA binding mutants of Hop2-Mnd1; only summarized in Table 1; resin and tag not told.
Experiment [4] addresses T3, Hop2-Mnd1 (R64A/Y70A/Y71A). The experiment is described as above.
Experiment [5] concerns the target T4, Hop2 (K63A/Y65A/K67A)-Mnd1. The description is as above.
For a further experiment, the target named is T5, Hop2-Mnd1 (KYK+RYY). Described as above.

Consider B1, for which, in the experiment with human RAD51 [1], the binding result is given as “binds”.

Regarding B2, the binding result with human RAD51 [2] was “binds”.

As to B3, in experiment [3], the binding result was “binds”.

B4: the binding result (with Hop2 (R176A)-Mnd1; in experiment [4]; in experiment [5]; with Hop2-Mnd1 (KYK+RYY); in experiment [3]) was “binds” each time.

Turning to B5, the binding result with human RAD51 [2] is listed as “binds”.
